In PMC11569197:

Tests used:
[1] = biological target: Gtα-EYFP (cone transducin alpha subunit, GNAT2, with C-terminal EYFP) (European robin); assay: FRET or BRET; acceptor photobleaching FRET in transiently transfected, fixed QNR/K2 quail neuroretina cells; donor mTurquoise on ErCry4a, acceptor EYFP; confocal microscope, FRET efficiency (Dpost - Dpre)/Dpost
[2] = biological target: cone-specific G-protein transducin alpha subunit employed as a Gtα/Giα chimera, non-myristoylated (European robin); assay: SPR; Biacore 3000, CM5 chip, amine coupling; Gtα/Giα immobilised, ErCry4a 5-100 nM (and 500 nM) injected; global fit with a two-state-reaction model; 10 mM HEPES/NaOH pH 7.4, 150 mM NaCl, 10 mM MgCl2, 0.005% Tween-20, 3.4 mM EDTA

Row | Substance | mean FRET efficiency [1] | Kd [2] | ka1 (two-state-reaction model) [2] | kd1 (two-state-reaction model) [2]
1 | mTurquoise-ErCry4a (N-terminally tagged ErCry4a) (natural protein) | 24.5% | – | – | –
2 | European robin cryptochrome 4a (ErCry4a), purified recombinant (natural protein) | – | 19.8 nM | 221000 M⁻¹ s⁻¹ | 0.00438 s⁻¹
